We go through 3 molecules from patent US20100196385A1 (AstraZeneca / MedImmune, published 2010).

The target of assay [1] is T1, human Dll1 (human, UniProt O00548 18-723).
T1 construct: whole, on cells
T1 sequence (looked up): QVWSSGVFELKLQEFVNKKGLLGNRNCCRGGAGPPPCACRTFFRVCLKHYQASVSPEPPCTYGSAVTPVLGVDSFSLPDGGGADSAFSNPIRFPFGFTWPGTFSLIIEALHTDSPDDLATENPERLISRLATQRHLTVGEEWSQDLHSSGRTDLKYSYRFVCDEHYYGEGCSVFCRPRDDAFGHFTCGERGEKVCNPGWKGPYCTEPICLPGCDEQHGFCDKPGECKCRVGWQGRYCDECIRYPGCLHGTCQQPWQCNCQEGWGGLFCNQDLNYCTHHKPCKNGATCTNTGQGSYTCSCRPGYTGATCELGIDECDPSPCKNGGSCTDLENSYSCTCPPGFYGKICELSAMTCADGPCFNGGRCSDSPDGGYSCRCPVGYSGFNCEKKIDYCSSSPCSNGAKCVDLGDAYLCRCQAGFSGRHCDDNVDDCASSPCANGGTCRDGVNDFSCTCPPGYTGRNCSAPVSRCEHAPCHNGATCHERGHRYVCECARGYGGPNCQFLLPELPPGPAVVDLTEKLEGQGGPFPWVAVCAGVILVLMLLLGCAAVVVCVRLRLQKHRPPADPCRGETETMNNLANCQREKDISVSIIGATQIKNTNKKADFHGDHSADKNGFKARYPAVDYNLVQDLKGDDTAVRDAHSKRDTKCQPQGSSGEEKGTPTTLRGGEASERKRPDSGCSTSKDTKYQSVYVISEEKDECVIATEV
The assay is described as follows: FACS, up to 300 µg/ml, HEK-293 cells stably overexpressing human Dll1.

Assay [2] addresses T2, human Jagged1 (human, UniProt P78504 34-1218).
T2 construct: whole, on cells
The assay is described as follows: FACS, up to 300 µg/ml, HEK-293 cells stably overexpressing human Jagged1.

Assay [3] has as its target T3, full length human DLL4 (human, UniProt Q9NR61 27-685).
T3 construct: whole, on cells; also called native DLL4 expressed in HEK293 cells
The assay is described as follows: FACS competition, unlabeled antibody vs competitor Alexa-647 4B4, HEK293 cells with human DLL4. The method, then:
(§1) The ability of the purified DLL4 antibodies to inhibit the binding of other DLL4 antibodies to human DLL4 was assessed using a FACS assay. Briefly, antibodies were directly labelled with Alexa-647 using a commercially available labelling kit (e.g. Molecular Probes catalog #A30009, A-20186) as per the manufacturer's instructions. To determine the level of cross-competition, unlabelled anti-DLL4 antibodies (final concentration: 10-0.01 μg/ml) diluted in PBS containing 2% FCS were added to DLL4-expressing HEK 293 cells (as described in example 6; 50000 cells/well diluted in PBS containing 2% FCS) and incubated for 1 h at 4° C. Subsequently, Alexa-647 labeled anti-DLL4 antibodies were added at a final concentration of 0.1 μg/ml and plates were incubated for a further 1 h at 4° C. prior to washing and reading on a FACSCalibur instrument. Data that summarizes the ability of unlabeled antibodies (10, 1, 0.1 μg/ml) to compete with labeled 21H3RK for binding to human DLL4 is included in FIG. 3. Additional data that summarizes the ability of unlabeled antibodies to compete with labeled 21H3RK and 4B4 for binding to human DLL4 is included in Table 22.

Assay [4] concerns the target T3, full length human DLL4. In words: FACS competition, unlabeled antibody vs competitor Alexa-647 21H3RK, HEK293 cells with human DLL4. The method, then: as §1
For assay [5], the target named is T1, human Dll1. The assay is described as follows: Flow cytometry on HEK293F cells transiently expressing HuDll1; 21H3RK, goat anti-human IgG-FITC. From the text:
This specificity is employed to deduce the binding epitope of Mab 21H3RK to human DLL4. Chimeric variants were engineered with portions of the extracellular domain of DLL4 replaced with the corresponding segments of DLL1. […] The resulting variants were cloned into a mammalian expression vector encoding a human cytomegalovirus major immediate early (hCMVie) enhancer, promoter and 5′-untranslated region for transient mammalian expression. The chimeric variants were transiently expressed in HEK293F cells as membrane-bound proteins for flow cytometric characterization with Mab 21H3RK. 48 h post-transfection, HEK293F transfectants were incubated with 1 μg/ml of Mab 21H3RK for 1 h on ice in PBS, washed, then incubated with goat anti-human IgG-FITC (Jackson ImmunoResearch Laboratories, PA) and analyzed with a LSRII flow cytometer (BD Biosciences, CA). The expression levels of all chimeric variants were is monitored by incubating with a mixture of both goat anti-mouse DLL4 (which also recognizes human DLL4) and goat anti-human DLL1 polyclonal antibodies (both from R&D Systems., MN), then detected with porcine anti-goat IgG-PE (Invitrogen, CA).
On the technique in general: In flow cytometry, cells or beads pass a laser one at a time.

In assay [6] the target is T3, full length human DLL4. In words: FACS titration, HEK293 cells with human DLL4. The method, then: The binding affinities of the purified antibodies for DLL4 was estimated using is both FACS and BIAcore techniques. […] The cells were then washed and incubated with goat anti-human IgG-Fc-Cy5+5 μg/mL 7-Amino-Actinomycin (7AAD) for 30 minutes at 4° C.
In this equation, F=mean fluorescence, LT=total molecular mAb concentration, P′=proportionality constant that relates arbitrary fluorescence units to bound mAb, M=cellular concentration in molarity, n=number of receptors per cell, B=background signal, and KD=equilibrium dissociation constant. For each mAb titration curve an estimate for KD is obtained as P′, n, B, and KD are allowed to float freely in the nonlinear analysis. Table 20 summarizes the affinity estimates for the anti-DLL4 antibodies for human and cynomolgus monkey DLL4 derived using the methodology described above

Assay [7] addresses T3, full length human DLL4. The assay is described as follows: FACS competition vs human Notch1/Fc, HEK293 cells with human DLL4. The method, then: (§2) Further experiments were performed on selected antibodies using HEK293 cells that were stably transfected with either human, mouse or cynomolgus monkey DLL4 using retroviral constructs. In these experiments, anti-DLL4 antibodies (final concentration: 10-0.01 μg/ml) diluted in PBS containing 2% FCS were added to DLL4-expressing HEK 293 cells (50000 cells/well diluted in PBS containing 2% FCS) and incubated for 1 h at 4° C. Subsequently, Alexa-647 labeled human, rat or APC labeled mouse Notch1/Fc (e.g. R&D Systems, catalog #3647-TK-050, 1057-TK-050, 5267-TK-050, respectively) was added at a final concentration of 0.01-0.5 μg/ml and plates were incubated for a further 2 h at 4° C. prior to washing and reading on a FACSCalibur instrument.

The target of the next assay is T4, full length mouse DLL4 (mouse, UniProt Q9JI71 27-686).
T4 construct: whole, on cells
The assay is described as follows: FACS competition vs mouse Notch1/Fc, HEK293 cells with mouse DLL4. The method, then: as §2

Assay [8] deals with T5, human soluble DLL4 (R&D systems catalog #1056-D4-050) (human, UniProt Q9NR61 27-524).
T5 construct: Catalog number as printed; perhaps the same product as #1506-D4; also called antigen DLL4
The assay is described as follows: Biacore T100, antibody immobilised, soluble human DLL4 as analyte. The method, then:
For Biacore analysis, each purified anti-DLL4 antibody was immobilized on a CM5 sensor chip within a T100 using standard amine coupling. Immobilization levels were kept below 200 RU. The concentration of DLL4 was determined by UV-VIS spectroscopy using a molar absorptivity at 280 nm of 110, 440 M⁻¹cm⁻¹, which was calculated from the sequence of the protein using a method developed by Pace et al. (G. R. Grimsley and C. N. Pace (2003) in Current Protocols in Protein Science (John Wiley & Sons, Inc.), 3.1.1-3.1.9). The antigen DLL4 (R&D systems; human catalog #1056-D4-050 or mouse, catalog #1389-D4-050) was diluted to a starting concentration of 32-64 nM and tested in a 3-fold dilution series in triplicate. The running buffer contained HBS-P with 0.1 mg/ml BSA and binding responses were collected at 23° C. Bound complexes were regenerated with a 15 s pulse of 10 mM of sodium hydroxide. The response data were globally fitted with a simple 1:1 interaction model and Table 20 summarizes the kₐ, kd and KD estimates obtained for the anti-DLL4 antibodies when binding to human soluble DLL4 was assessed.
(In SPR one partner is held on a chip, and binding of the other changes the refractive index at the surface.)

In assay [9] the target is T2, human Jagged1. In words: FACS, 5 µg/ml, 293T cells with human Jagged1. The procedure, abridged:
(§3)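 Cross-reactivity of anti-DLL4 antibodies is measured on cells seeded at 50000 per well in PBS/2% FCS. Antibody, diluted in the same buffer, is incubated for 1 h at 4 °C before flow cytometric analysis against mock-transfected controls.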

In assay [10] the target is T2, human Jagged1. In words: FACS, 1 µg/ml, 293T cells with human Jagged1 vs mock.
In assay [11] the target is T2, human Jagged1. The assay is described as follows: FACS, 5 µg/ml, 293T cells with human Jagged1 vs mock. The procedure, abridged:
as §3

Assay [12] concerns the target T2, human Jagged1. The assay is described as follows: FACS, 0.2 µg/ml, 293T cells with human Jagged1 vs mock.

T3 sequence (Q9NR61 27-685): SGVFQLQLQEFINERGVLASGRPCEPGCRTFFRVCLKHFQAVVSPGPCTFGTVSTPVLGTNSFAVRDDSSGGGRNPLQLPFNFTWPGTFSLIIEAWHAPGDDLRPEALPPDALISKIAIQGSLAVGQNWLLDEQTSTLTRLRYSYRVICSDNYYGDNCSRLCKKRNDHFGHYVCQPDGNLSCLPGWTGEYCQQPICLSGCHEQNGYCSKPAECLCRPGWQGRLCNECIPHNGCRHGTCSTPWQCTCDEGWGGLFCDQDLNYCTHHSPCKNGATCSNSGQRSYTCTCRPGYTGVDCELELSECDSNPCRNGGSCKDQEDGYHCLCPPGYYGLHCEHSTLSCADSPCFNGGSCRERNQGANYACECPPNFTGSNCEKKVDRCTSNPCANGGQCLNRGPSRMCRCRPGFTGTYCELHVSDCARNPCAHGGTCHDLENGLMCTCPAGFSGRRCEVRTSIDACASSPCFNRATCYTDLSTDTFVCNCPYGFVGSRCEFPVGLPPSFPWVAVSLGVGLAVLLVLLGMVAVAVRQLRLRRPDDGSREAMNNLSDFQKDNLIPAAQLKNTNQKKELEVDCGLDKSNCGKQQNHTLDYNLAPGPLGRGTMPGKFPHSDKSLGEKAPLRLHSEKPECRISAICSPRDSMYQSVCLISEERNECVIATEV
T2 sequence (P78504 34-1218): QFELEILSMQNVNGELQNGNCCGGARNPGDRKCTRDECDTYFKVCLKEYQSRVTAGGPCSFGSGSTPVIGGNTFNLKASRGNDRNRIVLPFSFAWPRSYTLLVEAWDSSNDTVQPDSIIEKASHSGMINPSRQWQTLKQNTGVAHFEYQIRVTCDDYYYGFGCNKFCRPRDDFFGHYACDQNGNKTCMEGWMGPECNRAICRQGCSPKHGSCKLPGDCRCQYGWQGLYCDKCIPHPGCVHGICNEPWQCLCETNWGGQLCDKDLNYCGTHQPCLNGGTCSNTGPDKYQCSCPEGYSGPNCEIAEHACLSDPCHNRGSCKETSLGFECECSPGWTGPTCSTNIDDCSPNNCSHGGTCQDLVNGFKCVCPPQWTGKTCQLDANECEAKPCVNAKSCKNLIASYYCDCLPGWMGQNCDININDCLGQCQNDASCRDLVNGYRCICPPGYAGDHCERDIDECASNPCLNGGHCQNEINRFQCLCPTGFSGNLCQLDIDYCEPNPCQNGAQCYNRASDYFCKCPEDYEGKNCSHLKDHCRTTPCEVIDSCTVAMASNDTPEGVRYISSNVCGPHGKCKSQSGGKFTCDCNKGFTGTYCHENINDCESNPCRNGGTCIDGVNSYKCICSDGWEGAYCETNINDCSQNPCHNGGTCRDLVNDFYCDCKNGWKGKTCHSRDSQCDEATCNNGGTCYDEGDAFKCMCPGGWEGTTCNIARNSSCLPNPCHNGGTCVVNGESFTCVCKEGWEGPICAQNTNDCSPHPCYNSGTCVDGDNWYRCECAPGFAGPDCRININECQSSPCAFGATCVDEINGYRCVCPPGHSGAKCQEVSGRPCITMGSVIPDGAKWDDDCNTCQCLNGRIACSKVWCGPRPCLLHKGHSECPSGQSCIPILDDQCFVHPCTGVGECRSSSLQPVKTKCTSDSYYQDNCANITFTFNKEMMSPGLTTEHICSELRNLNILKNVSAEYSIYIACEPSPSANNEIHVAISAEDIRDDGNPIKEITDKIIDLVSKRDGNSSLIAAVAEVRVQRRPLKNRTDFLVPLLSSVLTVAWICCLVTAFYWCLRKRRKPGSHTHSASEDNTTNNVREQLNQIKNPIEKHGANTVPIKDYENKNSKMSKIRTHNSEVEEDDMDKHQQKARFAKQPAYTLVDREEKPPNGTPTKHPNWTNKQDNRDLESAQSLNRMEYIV
T5 sequence (Q9NR61 27-524 limits assumed): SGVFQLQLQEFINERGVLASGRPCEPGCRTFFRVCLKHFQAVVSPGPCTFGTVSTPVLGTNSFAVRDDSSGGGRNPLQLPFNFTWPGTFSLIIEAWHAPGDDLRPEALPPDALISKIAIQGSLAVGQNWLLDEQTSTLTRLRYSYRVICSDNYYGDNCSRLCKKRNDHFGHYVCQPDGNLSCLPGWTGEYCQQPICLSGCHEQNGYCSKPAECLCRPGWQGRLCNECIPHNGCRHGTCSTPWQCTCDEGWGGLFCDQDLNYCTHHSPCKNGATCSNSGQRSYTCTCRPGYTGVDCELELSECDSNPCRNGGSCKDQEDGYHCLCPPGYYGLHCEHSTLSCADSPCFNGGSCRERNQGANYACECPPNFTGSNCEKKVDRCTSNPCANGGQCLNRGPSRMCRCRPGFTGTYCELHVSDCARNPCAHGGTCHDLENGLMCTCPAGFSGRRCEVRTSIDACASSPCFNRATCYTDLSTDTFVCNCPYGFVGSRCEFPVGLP
T4 sequence (Q9JI71 27-686): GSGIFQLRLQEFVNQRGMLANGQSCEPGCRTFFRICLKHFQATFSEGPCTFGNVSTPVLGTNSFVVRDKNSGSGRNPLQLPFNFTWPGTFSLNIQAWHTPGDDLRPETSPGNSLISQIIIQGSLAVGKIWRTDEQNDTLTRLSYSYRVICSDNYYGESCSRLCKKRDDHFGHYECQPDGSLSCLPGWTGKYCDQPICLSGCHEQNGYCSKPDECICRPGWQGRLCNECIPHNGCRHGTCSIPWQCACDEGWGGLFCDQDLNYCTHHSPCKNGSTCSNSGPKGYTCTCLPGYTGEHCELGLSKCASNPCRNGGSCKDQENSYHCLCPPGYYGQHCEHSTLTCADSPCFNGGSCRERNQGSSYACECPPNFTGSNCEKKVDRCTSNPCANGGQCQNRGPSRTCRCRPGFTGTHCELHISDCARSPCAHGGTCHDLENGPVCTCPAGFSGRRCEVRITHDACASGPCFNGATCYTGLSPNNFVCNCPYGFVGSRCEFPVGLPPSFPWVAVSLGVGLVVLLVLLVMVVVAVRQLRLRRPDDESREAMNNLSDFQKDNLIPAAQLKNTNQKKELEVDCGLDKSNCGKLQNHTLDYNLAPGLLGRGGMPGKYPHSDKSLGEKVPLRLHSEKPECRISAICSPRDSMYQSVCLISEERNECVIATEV

B1: 21H3RK (antibody, V domains shown)
VH: QVQLVQSGAEVKKPGASVKVSCKASGYTFTNYGITWVRQAPGQGPEWMGWISAYNGNTNYAQKLQDRVTVTTDTSTSTAYMELRSLRSDDTAVYYCARDRVPRIPVTTEAFDIWGQGTMVTVSS
VL: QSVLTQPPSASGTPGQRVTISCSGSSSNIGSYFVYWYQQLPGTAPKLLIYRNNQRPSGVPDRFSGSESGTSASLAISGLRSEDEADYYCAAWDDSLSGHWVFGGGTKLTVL
notes: also called Mab 21H3RK; Monoclonal 21H3RK
As usually defined, the IC50 is the midpoint of a concentration-inhibition curve. The low end stands for inhibition by little substance, the high end for a need for much substance. Regarding B1, the fold over background with human Dll1 [1] and with human Jagged1 [2] was under 2.5 fold each time. The IC50 with full length human DLL4 [3] is 0.223 µg/mL; with full length human DLL4 [4] it was 0.214 µg/mL. Also, the binding result with human Dll1 [5] is listed as “no binding (tested: 1 ug/ml (single concentration))”.

B2: 21H3RK IgG1 (antibody, V domains shown)
VH: QVQLVQSGAEVKKPGASVKVSCKASGYTFTNYGITWVRQAPGQGPEWMGWISAYNGNTNYAQKLQDRVTVTTDTSTSTAYMELRSLRSDDTAVYYCARDRVPRIPVTTEAFDIWGQGTMVTVSS
VL: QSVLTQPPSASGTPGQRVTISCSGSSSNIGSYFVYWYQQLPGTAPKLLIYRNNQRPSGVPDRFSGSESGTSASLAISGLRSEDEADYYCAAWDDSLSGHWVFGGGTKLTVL
notes: IgG1; VL is 21H3 VLOP1 (R107K)
For orientation: Kd means the concentration at which binding is half-saturated. Read a low Kd as higher affinity. As a reminder, the koff is the first-order rate constant of dissociation. By kon is commonly meant a measure of how fast the partners come together. B2 yielded a dissociation constant Kd with full length human DLL4 [6] of 0.155 nM. In the assay with full length human DLL4 [7], this molecule displayed an IC50 of 0.58 nM. The molecule also had an IC50 with full length mouse DLL4 of 42 nM. Besides, in assay [8], binding was characterised by a dissociation constant (Kd) of 0.493 nM, the dissociation rate constant (koff) is 0.000166 s⁻¹ and the association rate constant (kon) is 337000 M⁻¹ s⁻¹.

B3: human Notch3/Fc chimera (Fc fusion, UniProt Q9UM47 40-467, looked up)
chain: APPCLDGSPCANGGRCTQLPSREAACLCPPGWVGERCQLEDPCHSGPCAGRGVCQSSVVAGTARFSCRCPRGFRGPDCSLPDPCLSSPCAHGARCSVGPDGRFLCSCPPGYQGRSCRSDVDECRVGEPCRHGGTCLNTPGSFRCQCPAGYTGPLCENPAVPCAPSPCRNGGTCRQSGDLTYDCACLPGFEGQNCEVNVDDCPGHRCLNGGTCVDGVNTYNCQCPPEWTGQFCTEDVDECQLQPNACHNGGTCFNTLGGHSCVCVNGWTGESCSQNIDDCATAVCFHGATCHDRVASFYCACPMGKTGLLCHLDDACVSNPCHEDAICDTNPVNGRAICTCPPGFTGGACDQDVDECSIGANPCEHLGRCVNTQGSFLCQCGRGYTGPRCETDVNECLSGPCRNQATCLDRIGQFTCICMAGFTGTYCE
notes: Positive control for Jagged1; also called N3 Fc; Fc part of the bought chimera not given, not described
On to B3, for which, in the assay with human Jagged1 [9], the “Jagged1/293T X Geo mean” value stood at 51. Further, the values for the Jagged1/mock ratio with human Jagged1 [10], in the assay with human Jagged1 [11] and in the assay with human Jagged1 [12] were 2.88, 3.87 and 1.96, respectively.
